2 substances from US20070093443A1 can be followed below.

The target in the test is Complement C2 (human) (human) (UniProt P06681). Kind of test: cell-based or functional assay.
Complement C2 (human) (human), sequence (P06681 21-752 limits assumed): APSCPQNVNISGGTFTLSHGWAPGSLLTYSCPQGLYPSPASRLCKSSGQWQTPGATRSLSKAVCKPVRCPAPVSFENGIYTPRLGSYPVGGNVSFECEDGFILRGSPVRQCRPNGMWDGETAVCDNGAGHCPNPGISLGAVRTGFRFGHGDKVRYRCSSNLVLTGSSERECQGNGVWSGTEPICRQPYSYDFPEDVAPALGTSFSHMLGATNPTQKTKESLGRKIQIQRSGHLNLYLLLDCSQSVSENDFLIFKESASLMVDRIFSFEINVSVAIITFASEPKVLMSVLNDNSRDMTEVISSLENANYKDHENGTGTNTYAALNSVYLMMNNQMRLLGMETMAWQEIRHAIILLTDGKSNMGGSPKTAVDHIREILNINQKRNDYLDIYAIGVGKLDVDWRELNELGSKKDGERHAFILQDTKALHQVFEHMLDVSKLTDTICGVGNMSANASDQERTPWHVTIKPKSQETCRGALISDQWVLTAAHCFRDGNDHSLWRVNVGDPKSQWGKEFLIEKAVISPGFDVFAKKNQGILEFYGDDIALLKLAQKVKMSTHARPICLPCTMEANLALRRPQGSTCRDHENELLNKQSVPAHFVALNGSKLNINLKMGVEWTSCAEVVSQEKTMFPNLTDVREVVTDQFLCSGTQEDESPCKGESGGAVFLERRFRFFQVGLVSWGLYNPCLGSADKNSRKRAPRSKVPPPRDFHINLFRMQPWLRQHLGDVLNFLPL

On to “modified MT-SP1 CB42 (Y146E) protease domain (from UniProt Q9Y5Y6 615-855) (enzyme)”, for which the IC50 of the proteases for cleavage of C2 (Western blot densitometry, 5% human plasma, 1 h 37 C) amounted to 11.9 nM. Substance “wildtype MT-SP1 protease domain (CB200) (from UniProt Q9Y5Y6 615-855) (enzyme)” returned an IC50 of the proteases for cleavage of C2 (Western blot densitometry, 5% human plasma, 1 h 37 C) of 15.7 nM.
